In PMC7867188, “Biosensor-Based Directed Evolution of Methanol Dehydrogenase from Lysinibacillus xylanilyticus” (International Journal of Molecular Sciences, 2021):
Residue numbers refer to the chain shown, from its start. Names may count otherwise.

B1: Lxmdh (methanol dehydrogenase, Mdh, NAD-dependent) (Lysinibacillus xylanilyticus) (protein)
chain: MSDVLKQFVMPKTNLFGPGAIQEVGTRLNDLEVKKTLIVTDEGLHKLGLSEQIANIITAAGIDVAIFPKAEPNPTDQNIEDGIAVYHAENCDSIVSLGGGSAHDAAKGIGLIASNGGRIHDYEGVDKSQNPLVPLIAINTTAGTASEMTRFTIITDTARKVKMAIVDKHVTPLLSINDPELMIGLPPALTAATGLDALTHAIESFVSTNATPITDACAEKVLQLVPEYLPRAYANGADLEAREQMVYAQFLAGMAFNNASLGYVHAIAHQLGGFYNLPHGVCNAILLPHVCRFNLTARTERFARIAELLGENVEALSKRDAAEKAIVAIENLSRDLNIPSGFRELGAKDEDIEILAKNAMLDVCAATNPRKATLEEIKQIITNAMGPVAKKEESLEAVALS
notes: His-tagged (pET28a; cloning primers indicate N-terminal His/thrombin tag and native stop), expressed in E. coli, Ni-NTA purified; cloning primers encode N-terminus MSDVLK and C-terminus KAVALS
B2: Lxmdh (methanol dehydrogenase, Mdh, NAD-dependent) (Lysinibacillus xylanilyticus; E396V) (protein)
chain: B1 chain with E396V
notes: as for B1
B3: Lxmdh (methanol dehydrogenase, Mdh, NAD-dependent) (Lysinibacillus xylanilyticus; E396V/K318N) (protein)
chain: B1 chain with K318N, E396V
notes: as for B1
B4: Lxmdh (methanol dehydrogenase, Mdh, NAD-dependent) (Lysinibacillus xylanilyticus; K318N) (protein)
chain: B1 chain with K318N
notes: as for B1
B5: Lxmdh (methanol dehydrogenase, Mdh, NAD-dependent) (Lysinibacillus xylanilyticus; K46E) (protein)
chain: B1 chain with K46E
notes: as for B1

Substrate: CO
Assay: HPLC of formaldehyde after O-benzylhydroxylamine derivatization; Michaelis-Menten nonlinear fit
Type: biochemical, Lysinibacillus xylanilyticus
Conditions: 3 mM NAD+, 5 mM Mg2+, 50 mM CHES pH 9.5, 55 °C, 10 min, 0-5 mM methanol
Text: HPLC of formaldehyde after O-benzylhydroxylamine derivatization; Michaelis-Menten nonlinear fit on Lxmdh (methanol dehydrogenase, Mdh, NAD-dependent)

Protein	Km [µM]	kcat [s⁻¹]
B1	1311 ± 406	0.0333 ± 0.00333
B2	10 ± 3	0.02 ± 0.00167
B3	233 ± 107	0.0217 ± 0.00167
B4	46 ± 72	0.0267 ± 0.005
B5	372 ± 231	0.0283 ± 0.00333
